Assay results as given in US20210388041A1 (NEXEL, published 2021).

Experiments:
[1] = target: T1, integrin β3 (integrin αvβ3) (human, UniProt P05106 27-788; P06756 31-1048); assay: proximity ligation assay in human HSCs
T1 construct: whole, on cells; The assays detect the β3 chain with an antibody; The legend speaks of integrin αvβ3 on HSCs; also called Integrin B3; integrin β3/β5
Description: (§1) For the PLA incorporation assay, human HSCs were seeded at 2×10⁴ cells per well on the 18 mm circular cover glass in 12-well plates and cultured for 24 hours. After serum starvation for 24 hours, the cells were treated with 10 ng/ml of TGF-β1 and/or 500 ng/ml of NP-011, and then, further incubated for 30 minutes. The PLA incorporation was accessed using the Duolink In Situ Red Starter Kit (Merck) according to the manufacturer's instructions. Digital images of PLA-positive cells were captured using a microscope (Nikon) and analyzed using ImageJ software <https://imagej.nih.gov/iy>.
(§2) It was investigated herein the mechanism of action for NP-011's rapid and effective suppression TGF-β signaling observed in diseased liver (FIGS. 1E and 2F). One day after administration of NP-011 in TAA-induced fibrotic liver, NP-011 preferentially bound to α-SMA-positive HSCs, and some of NP-011 interacted with macrophages in the liver (FIG. 6). Integrin αvβ3 and αvβ5 on the surface of HSCs have been previously implicated in regulating fibrosis. Additionally, the crosstalk between integrin and TGF-β signaling may be important in the regulation of pathological epithelial to mesenchymal transition (EMT) and myofibroblast differentiation. […] As a consequences of NP-011 treatment in TGF-β1-treated HSCs, the proliferative HSCs returned to quiescent status (FIG. 7D). […]

[2] = target: T2, integrin β5 (integrin αvβ5) (human, UniProt P18084 24-799; P06756 31-1048); assay: proximity ligation assay in human HSCs
T2 construct: whole, on cells; The assays detect the β5 chain with an antibody; The legend speaks of integrin αvβ5 on HSCs; also called Integrin B5; integrin β3/β5
T2 sequence (P18084 24-799, chain 1 of 2): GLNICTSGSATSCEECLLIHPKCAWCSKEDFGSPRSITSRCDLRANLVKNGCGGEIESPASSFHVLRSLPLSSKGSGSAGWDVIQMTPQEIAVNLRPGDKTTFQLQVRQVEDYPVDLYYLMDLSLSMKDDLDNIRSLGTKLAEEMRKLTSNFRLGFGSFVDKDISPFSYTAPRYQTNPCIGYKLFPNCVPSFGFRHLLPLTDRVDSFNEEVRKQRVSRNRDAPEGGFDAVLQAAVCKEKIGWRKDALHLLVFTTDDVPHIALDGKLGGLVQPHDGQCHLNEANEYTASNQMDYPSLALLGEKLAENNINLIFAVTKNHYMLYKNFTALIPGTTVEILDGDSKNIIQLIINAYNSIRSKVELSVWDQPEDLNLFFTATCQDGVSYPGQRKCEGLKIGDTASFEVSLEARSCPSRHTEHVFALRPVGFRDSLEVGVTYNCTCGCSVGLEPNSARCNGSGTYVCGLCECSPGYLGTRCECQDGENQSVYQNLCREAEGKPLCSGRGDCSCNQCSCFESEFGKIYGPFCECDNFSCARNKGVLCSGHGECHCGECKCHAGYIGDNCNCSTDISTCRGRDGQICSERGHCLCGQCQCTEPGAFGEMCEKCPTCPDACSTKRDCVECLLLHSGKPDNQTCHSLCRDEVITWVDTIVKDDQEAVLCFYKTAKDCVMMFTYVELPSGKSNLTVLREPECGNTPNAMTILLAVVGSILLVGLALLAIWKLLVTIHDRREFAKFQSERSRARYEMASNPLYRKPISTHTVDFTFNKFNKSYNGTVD
T2 sequence (P06756 31-1048, chain 2 of 2): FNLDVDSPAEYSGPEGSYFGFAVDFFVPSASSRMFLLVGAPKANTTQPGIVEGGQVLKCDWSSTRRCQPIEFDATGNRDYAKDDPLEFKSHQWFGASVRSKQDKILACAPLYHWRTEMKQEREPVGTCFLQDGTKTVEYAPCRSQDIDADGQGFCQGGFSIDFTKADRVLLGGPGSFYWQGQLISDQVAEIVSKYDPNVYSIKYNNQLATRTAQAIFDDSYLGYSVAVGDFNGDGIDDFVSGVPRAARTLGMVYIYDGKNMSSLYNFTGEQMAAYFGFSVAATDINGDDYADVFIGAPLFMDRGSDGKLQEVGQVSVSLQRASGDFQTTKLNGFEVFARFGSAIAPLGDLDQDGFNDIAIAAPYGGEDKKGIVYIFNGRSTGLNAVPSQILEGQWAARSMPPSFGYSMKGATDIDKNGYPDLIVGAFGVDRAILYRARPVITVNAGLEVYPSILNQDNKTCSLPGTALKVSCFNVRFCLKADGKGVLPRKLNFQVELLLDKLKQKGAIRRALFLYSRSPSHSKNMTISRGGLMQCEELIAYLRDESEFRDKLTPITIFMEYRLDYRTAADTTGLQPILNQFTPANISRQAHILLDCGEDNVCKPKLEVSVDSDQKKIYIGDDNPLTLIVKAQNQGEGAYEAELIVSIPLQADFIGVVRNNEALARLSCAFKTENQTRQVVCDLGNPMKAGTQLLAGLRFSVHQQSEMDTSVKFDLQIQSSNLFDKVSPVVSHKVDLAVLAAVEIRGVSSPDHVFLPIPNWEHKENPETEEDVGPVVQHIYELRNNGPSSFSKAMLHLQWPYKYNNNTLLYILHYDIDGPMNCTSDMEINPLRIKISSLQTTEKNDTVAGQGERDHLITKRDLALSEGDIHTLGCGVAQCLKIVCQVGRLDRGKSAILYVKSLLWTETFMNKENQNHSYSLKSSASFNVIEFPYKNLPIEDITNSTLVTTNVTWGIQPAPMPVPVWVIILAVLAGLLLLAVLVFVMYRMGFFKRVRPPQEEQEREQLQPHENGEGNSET
Description: as §1, §2

T1 sequence (P05106 27-788, chain 1 of 2): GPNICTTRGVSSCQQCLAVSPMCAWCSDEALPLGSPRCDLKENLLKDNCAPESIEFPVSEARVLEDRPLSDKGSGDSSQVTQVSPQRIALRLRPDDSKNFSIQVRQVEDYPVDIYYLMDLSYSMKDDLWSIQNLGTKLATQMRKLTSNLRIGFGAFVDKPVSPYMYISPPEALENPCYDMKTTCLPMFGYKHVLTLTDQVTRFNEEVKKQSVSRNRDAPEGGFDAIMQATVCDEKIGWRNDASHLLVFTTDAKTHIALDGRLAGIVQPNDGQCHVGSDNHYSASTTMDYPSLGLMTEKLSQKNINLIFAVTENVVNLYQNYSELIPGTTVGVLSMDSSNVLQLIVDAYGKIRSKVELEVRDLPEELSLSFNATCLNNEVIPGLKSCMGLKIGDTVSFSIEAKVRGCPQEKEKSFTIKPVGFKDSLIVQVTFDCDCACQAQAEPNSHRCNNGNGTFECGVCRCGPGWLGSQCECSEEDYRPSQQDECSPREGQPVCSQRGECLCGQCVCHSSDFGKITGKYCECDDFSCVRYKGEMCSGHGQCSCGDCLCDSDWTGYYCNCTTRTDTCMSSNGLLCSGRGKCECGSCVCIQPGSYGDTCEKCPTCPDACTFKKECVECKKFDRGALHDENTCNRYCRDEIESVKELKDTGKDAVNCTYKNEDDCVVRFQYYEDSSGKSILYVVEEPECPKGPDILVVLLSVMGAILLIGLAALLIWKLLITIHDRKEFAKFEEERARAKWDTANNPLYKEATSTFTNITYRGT
T1 sequence (P06756 31-1048, chain 2 of 2): as the sequence (P06756 31-1048, chain 2 of 2) above

- binding result [1]: binds
- binding result [2]: binds
B1: TGF-β receptor 1 (TGFBRI) (receptor, human, UniProt P36897 34-503, looked up)
chain: LQCFCHLCTKDNFTCVTDGLCFVSVTETTDKVIHNSMCIAEIDLIPRDRPFVCAPSSKTGSVTTTYCCNQDHCNKIELPTTVKSSPGLGPVELAAVIAGPVCFVCISLMLMVYICHNRTVIHHRVPNEEDPSLDRPFISEGTTLKDLIYDMTTSGSGSGLPLLVQRTIARTIVLQESIGKGRFGEVWRGKWRGEEVAVKIFSSREERSWFREAEIYQTVMLRHENILGFIAADNKDNGTWTQLWLVSDYHEHGSLFDYLNRYTVTVEGMIKLALSTASGLAHLHMEIVGTQGKPAIAHRDLKSKNILVKKNGTCCIADLGLAVRHDSATDTIDIAPNHRVGTKRYMAPEVLDDSINMKHFESFKRADIYAMGLVFWEIARRCSIGGIHEDYQLPYYDLVPSDPSVEEMRKVVCEQKLRPNIPNRWQSCEALRVMAKIMRECWYANGAARLTALRIKKTLSQLSQQEGIKM
notes: whole, on cells; Endogenous protein of human HSCs; Detected in situ by PLA and pulled down from cell lysate with a TGFβRI antibody (Abcam ab31013); also called TGFβRI; TGFBR1
